Source: the DeepSol protein solubility set

Assay: soluble on expression in E. coli; label from the status in PepcDB or PDB records

Sequence	soluble on expression in E. coli
MSLIINNIALHFLSKKEETGEVVLRLGPENAEFAQENAKVTNFVDGLHAIYNAKGSKAYGSFSSMPSEGDSARFVDLMESYLTEQQNFYDFSVQAGNVLKNEIEKYDIEETGYFVICHYEYMGGRYLFVAVIPVSEHYSVDGELNISAAQHLDTNKLQLAARIDLFDYKDNSQGNRYISFVKGRAGRKVSDFFLDFLGCEEGLNSKEQTQTLVQAVEDYVSVNQLDPAEKQKTRKDLLSYCKEQKASSQDVSLQEVGKVIESAGTEQDFYQFCQTQSYPIEESFPHEQAVVNKITKYSGYGNGISLSFERSHFGEDVVYNPHNDSLIIYKVPPNLKEQLMALLDSEKVETDLEHHHHHH	not soluble
MSLILVTGAAGFIGSHLCEQLLMNEKVSVVGVDGHIDSSLCKVKERNVRNLLKHPRFTLLKQDLLTIDLEPLVDQVDVIYHLSGIPGVRSSWGTDFKKYVTHNIVATQQLLEACRRHSLEKFIYISTSSVYGQKNGKVGEKASPTPLSPYGVSKLTGEHLCNVYYRNFSIPTVILRYFTVYGPRQRQDMAFHRFIKAIIDNQPIPIFGDGNQSRDFTYIDDCIAATCAVLHADVIGETINIGGKERATVLQIISMLESIFQKDAKLQFLEKPFGEPMSTWADISKAEKLLRYSPNVPLLQGIEKEVDEGHHHHHH	soluble
MSLIMKVVVKVGSNLLVGSSGLRKSYIAELCREVARLKSQGHEISIITSGARAAGFTYLGKGKRTQDLHIKQALCAVGQVQLMKVYENAFDFYGIKIAQILLTRDTFSNRKRYLNLRNTLIGLSEFDVVPIVNENDTVATEEITLGDNDTLAAMFSIAWDADFLVLFTTVDGVIDENGKLVERFDESVKLKDMGKSSWGTGGIRSKIESALMASRCGVKATICSGNDVSNLTRFVKGEPVGTVFEPQGRLKAKKAWIAFLSEPAGKIYVNKGAEEALKSGNSLLPVGVTGVEGTFDVGDVVEIVNEEGELVGRGIVNYSSSDLEKIAGHKSSDLKKILGYEGNKVVVHIDNMWVAEGHHHHHH	soluble
MSLINVQNVSKTFILHQQNGVRLPVLNRASLTVNAGECVVLHGHSGSGKSTLLRSLYANYLPDEGQIQIKHGDEWVDLVTAPARKVVEIRKTTVGWVSQFLRVIPRISALEVVMQPLLDTGVPREACAAKAARLLTRLNVPERLWHLAPSTFSGGEQQRVNIARGFIVDYPILLLDEPTASLDAKNSAAVVELIREAKTRGAAIVGIFHDEAVRNDVADRLHPMGASEGHHHHHH	not soluble
MSLIRMALAAVCALLFSITTMTPFVQASEITISGSTSVARIMDVLAEKYNQQHPETYVAVQGVGSTAGISLLKKGVADIAMTSRYLTESEAQNTLHTFTLAFDGLAIVVNQANPVTNLTREQLYGIYKGQITNWKQVGGNDQKIAVVTREASSGTRYSFESLMGLTKTVKDREVSDVAPTALVVNSNSMMKTLVNHNTQAVGFISIGSVDKSVKAIQFEKADPTSDNIAKHTYQLSRPFLILHYSDNADEQTKEFIAFLKSESAKKLIVEYGYIMPSDVEEGGSHHHHHH	soluble
MSLITHISPLGSMDMLSQLEVDMLKRTASSDLYQLFRNCSLAVLNSGSLTDNSKELLSRFENFDINVLRRERGVKLELINPPEEAFVDGRIIRALQANLFAVLRDILFVYGQIHNTVRFPNLNLDNSVHITNLVFSILRNARALHVGEAPNMVVCWGGHSINENEYLYARRVGNQLGLRELNICTGCGPGAMEAPMKGAAVGHAQQRYKDSRFIGMTEPSIIAAEPPNPLVNELIIMPDIEKRLEAFVRIAHGIIIFPGGVGTAEELLYLLGILMNPANKDQVLPLILTGPKESADYFRVLDEFVVHTLGENARRHYRIIIDDAAEVARQMKKSMPLVKENRRDTGDAYSFNWSMRIAPDLQMPFEPSHENMANLKLYPDQPVEVLAADLRRAFSGIVAGNVKEVGIRAIEEFGPYKINGDKEIMRRMDDLLQGFVAQHRMKLPGSAYIPCYEICTEGHHHHHH	soluble
MSLIYFETERLIARDYLTNDYLPFSQMNADEQVMKYFPARLTQNESNAFLDRIQEELKSLGYGLFAIEVKSTGEFIGFTGFHEATFEATFTPCTEIGWRLKHSAWNQGYATEAALGALALAEEINTINEIYSFTAALNKPSENVMKKIHLTKIATFEHPALVNGDPLKPHVLYKKAEGHHHHHH	soluble
MSLKALIIMDMTNDFVFEKYEHEGKEYEGRLVAPLGKTIVEPIEALVKKVVNSGTVSLFRISKDHYDAFTNPELELKVAELGIDEVFMTGLVDEVCIYHNTLGFLERGFRTNVVRGCTAPFDPEKGRESLGELDACGTKMVDDIPSDIGVILLLEDEHDENSEEIKSGSWPPHSMKGTPGALTIKPIREALESREGHHHHHH	soluble
MSLKAPGALRLLCFSDTHEKHLKIPPHQIVPCDICICAGDFTKFGDPAEVKKFKDWFIKIPARYRVLIAGNHETTFDVERYGRMVTQMRKIKSDLPRETAKSIVQTDGIIYLENESVEIEGLKIYGSPQTHYWEFWAFYYPDKDGPKVWAKIPHDTDILVCHTCPRSTIDLMRGQHVGCKSLANAIKEVQPSLVIYGHLHEGYGVAKIGKSVIANVSLTNLARKLANRPMIFDVSFKTPEIPRPLPKQPEETEIPKDEGHHHHHH	soluble
MSLKAVYIQKTGGPATIIVGSLPVPKVRPKSVLIKVIAASINYVDLFIRSGIYQTDLPNPYILGRDAIGQVVEIGKDVIQFKVGDCVWTNSMGYDGRQGITSEYALIPEERLFLTPKNADSLKLIGAVHSAATATIVLQDIMELKPKQKLLIEGAAGHVGSKLVYLANEMGAEVVTTASLKDFSRLKQLSDAICFDYRDKSLFKKLKSAYPDGFDHIIDTSGEIPLQFNCDLLAPKGVISLITAPKDSQFDSRQFYMNCQQMKGFVISHASLKQLKKAGRILNDAFRQGQLLEEDMVIKKFDKAAEAHDLMETKKENRKIILVEGHHHHHH	not soluble
MSLKDILVIGATGKQGNAVVKQLLEDGWYVSALTRNKNNRKLSDIGHPHLSIVEGDLSDNVSLQSAMKGKYGLYSIQPIVKDDVSEELRQGMKIIEIAEQENIQHIVYSTAGGVNRNRTGPHFEVLAKIENRLMESNINATVIKPSFFMDNFLRIAKVEDERITLPEFINPNIKFTMISSIDIAKIASYIFAHPQSFTHQSIEIGSDEVTLSEAATIFSEVTGKSTVIEGEFVSGVAEKQWLEEKGYEVDFELMAEINPTRLSLSDWLKVQNYNEGHHHHHH	soluble
MSLKEGAWGIIGVPFDSTTSYHPGSRFGPIVVREASYGFEKYNTIFNTQLDNIFYDFGDVNVVFGNCKKTCDIIEDTVNELSDLKIKPLTIGGEHSLTIGVLNSLTKKYDDLTVVHLDAHRDLADTFIGELYSHASVMKRVHEMGVKELVQIGIRSASKEEEDFVKNQSNITTFKNNDVFHHLDNIEYYLSIIDTPIYLSIDMDVFDPSIAPTVGNPTPNGIAYGHIEAMLQTLSLKNVVGMDVVETAGDRLGDITAVSASKIIYDFLSLLEGHHHHHH	not soluble
MSLKELYLIDALNIIFRNYHVMKNYPLLNTQGENVNAFIGFFKTLFFIIKEKNPEHLIITFDSEVPTFRKQKYPSYKATRDLPPDDLIPQIGWIKEGLLKAKIPIFEMEGYEADDLLASFAKKAAKNNYLTYIISPDKDLLQTMSEYVKILKIENNSFIEMDNEYVTKKFGVNSFQIKDYLAIVGDRSDNIPGIKGIGAKGAANLLREFKTLDGIYSNLEIINKKHRELLIKEKENAFLSYELVSLEENLKIPEIENFALKNFSEEIISLFEKHSAIALIKTYKKDILKQEKENADQKSLFKQEPTTNSLDDINTIDTENVKYRSITTKIELDDLIESLKKAKYISIDTETSSLDTYTAKLIGISISFKEFEGYYIPIEAKGKIYIEKNYIIQKFNNLFESNPKIIGQNYKFDYKILKNNGFNPIPPYFDTMIAAYLIDTNSKVSLDFLAEKYLMHKNIKYEDVIQKNDNFANISLEMATSYSSEDADITFRLFNIFTKKLKEDKLDKLMHEIEMPFNKVIIEMEEGHHHHHH	not soluble
MSLKEVDLTQEQMKDLNLTYDWYRSYDNAKLNEFLNFVLLNNSDINIARKTLLSALARADLIDYDLYPTLSGNLGFGADKDLNSGKQSKNFNNSLNLSYELDIYGKLRDSASASEFSAKASAYDLENLKISMINTALNDVFELAYFNDVDKLLRAYLSNLEQMKELYNYKYKLGKIEELDLLNIEQSLLRAKQNLLSNDQNRNLLIKNLQDLLARQEGFAYIEYFKTLSLNDFKTLSPDFNIPLKALAYRADVRSKLNSLKSAFKDYSSMQKSILPSISLGGALSGSDKKIDDSFKFEILSGNVKISLPFLDYGRVKQNIKISQFAYEQLLISYEQVLQSAMNEFALNYKDYQSDTLLLQNLQNINIKQELITKAYYEKYILGKSELKDYLDANNTLNSTQQEFLRARFNLLKTINSYYQITALSFNNENLEFPKEGHHHHHH	soluble
MSLKFHSPSCFLSAGEPSGDTLGSDLLRNIKELNPNIHCFGVGGPLMRKEGLEPLIRMEEFQVSGFLEVFCAVFSLYKKYRKLYKAILKENPETVFCIDFPDFHFFLIRKLRKCGYRGKIIHYVCPSIWAWRPNRKKILEKHLDTLLLILPFEKEIFKDSPLKTIYLGHPLVKTIANFQDCNAWKQQLEISDQPSVALFPGSRPGDIFRNLQVQARAFRSSSLAKSHQLLVSSCNPKYDKKILELLDKEGCHNNKIVPSKFRYQLMRDCDCALAKCGTIVLEAALNQTPTIVTCLLRPFDTFLAKYIFKIFIPAYSLPNIITGSVIFPEFIGGKHDFSPEEVAAAIDILANPIGKEKQKYACQQLLKTMTENVITPKECLQAIYAQKNREGHHHHHH	not soluble
MSLKIFDAHCDVLLQLWSAQGRKDFKHDSQLHITFEQLKRRKGSIQCFAIYVPETVAYENRFEVALQMVDIFYNEILSLPGVKFIQTKDDINMLKQDEIGAILTLEGCEAIGKDAMKIRLLYRLGVRSFGLTWNYANLLADGALETRGAGLTTSGKHVVQELNALHVWTDVSHLNERSFWDVIEIAKNPIASHSNCMKLCQHPRNLNDEQLKALIKRNGMIGVTFVPQFLTNEKQANVADIIRHIEYICSLGGENNIGFGSDFDGILETVVNVSAYRDYENVVNELCKHYAASTVERFLYDNFVEHISEGHHHHHH	not soluble
MSLKIHTLRLILGDQLNARHSWFREKDAGVLYVMMELKQETDYVVHHRQKVLAFFAAMRAFGNALNTSGHQVNYIKLDDDTNEQSLTQNLQQLMKKYEVTTLECQQPDEYRLDHQLKSWAGANNIHLSWFDTEHFLTGRNSLKEYFPNSENYLMETFYRRVRKQYDILMDGGRPTGGRWNYDKENQKKVPASHDVELPLIFSNDVSDIDELLRSSEIKTMGQANAAQLIWEGHHHHHH	not soluble
MSLKIIPGATGYFNKTLNSNQFDNEDAIKGKVNSIYGKSIDYSTMRHRDIIIAKIDLFIQRITHNLWTAREKNVTLIKQINDLKMCVNEYIGDCTDEELNDREFIASVVDRAIFHFAINSICNPEDNKDATLIERCTFDVETKNGLPSTVQLFYEESKDNEPLANIHLQAIGSGFLTFVNACQEHDDNSLKLFASLLISLSYSSVYSDFAGRVNINEYNDNYLKAQFEELSQRDMKKYLGEMKRLADGGEMNFDGYLDKMSHLVNEGTLAPDILSKMRDAAPKLIDFAKSFDPNSKEKIKIYTGTSKLIYDLFGVKSEKEGHHHHHH	soluble
MSLKILIPTAKEMNTDLPSIEAIPLKPESQTVLDALALYSASQLESFYKVSAEKAAEEFQNIQALKRQTAQHYPALKLFDGLMYRNIKRDKLTEAEQDYLENHVFITSALYGVVPALSPMAPHRLDFLMKLKVAGKTLKSHWKAVYDEALKKEEVIFSLLSSEFETVFSKEIRAKMVTFKFMEDRGGQLKIHSTISKKARGAFLTALIENQVQTVGEARRLNFAGFVYREDLSQPQGLVFVKEVEGHHHHHH	soluble
